Measurements taken from US20030166868A1 (Genentech, published 2003).

B1: E27 anti-IgE antibody, wild type (humanized IgG1) (antibody)
heavy: not shown
light: DIQLTQSPSSLSASVGDRVTITCRASKPVDGEGDSYMNWYQQKPGKAPKLLIYAASYLESGVPSRFSGSGSGTDFTLTISSLQPEDFATYYCQQSHEDPYTFGQGTKVEIKRTVAAPSVFIFPPSDEQLKSGTASVVCLLNNFYPREAKVQWKVDNALQSGNSQESVTEQDSKDSTYSLSSTLTLSKADYEKHKVYACEVTHQGLSSPVTKSFNRGEC
notes: In the FcγRIIa, FcγRIIb and FcγRIIIa ELISAs it stood as an immune complex E27:chimeric IgE:VEGF (1:1:2); in the FcγRI ELISA as monomeric IgG; also called recombinant anti-IgE E27; wt
B2: E27 anti-IgE antibody mutant E318A (antibody)
heavy: not shown
light: B1 light
notes: also called E318A (E27 background)
B3: E27 anti-IgE antibody mutant K320A (antibody)
heavy: not shown
light: B1 light
notes: also called K320A (E27 background)
B4: E27 anti-IgE antibody mutant K322A (antibody)
heavy: not shown
light: B1 light
notes: also called K322A (E27 background)
B5: E27 anti-IgE antibody mutant P329A (antibody)
heavy: not shown
light: B1 light
notes: also called P329A (E27 background)
B6: E27 anti-IgE antibody mutant P331A (antibody)
heavy: not shown
light: B1 light
notes: also called P331A (E27 background)

What follows are binders tested against T1, FcγRIIIa α subunit ECD-6His-GST fusion protein (UniProt P08637 17-208) (assay: ELISA, E27:chimeric IgE:VEGF (1:1:2) immune complex on plate-coated receptor ECD-6His-GST).
T1 construct: Expressed in 293 cells; also called FcγIII; FcγIIIa; not shown: glutathione S transferase (GST)
T1 sequence (P08637 other isoform, or with tags, fused parts or gaps, form in doubt): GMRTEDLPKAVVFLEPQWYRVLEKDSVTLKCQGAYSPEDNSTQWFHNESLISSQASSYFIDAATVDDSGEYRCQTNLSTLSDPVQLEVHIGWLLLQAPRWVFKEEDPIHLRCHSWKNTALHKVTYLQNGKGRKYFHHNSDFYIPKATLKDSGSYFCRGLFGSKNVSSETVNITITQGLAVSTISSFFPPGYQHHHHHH
For B1, the “binding as a percentage of the wild type” value was 100 % of wild type. In the case of B2, the “binding as a percentage of the wild type” value is reported as 104 % of wild type. B3 was tested, and the “binding as a percentage of the wild type” value was 72 % of wild type. In the case of B4, the “binding as a percentage of the wild type” value is reported as 90 % of wild type. With B5 the “binding as a percentage of the wild type” value was 85 % of wild type. For B6, the “binding as a percentage of the wild type” value was 73 % of wild type.

Each binder was assayed against T2, FcγRIIb α subunit ECD-6His-GST fusion protein (UniProt P31994 43-217) in the same assay as above.
T2 construct: Expressed in 293 cells; also called FcγRIlb; not shown: glutathione S transferase (GST)
T2 sequence: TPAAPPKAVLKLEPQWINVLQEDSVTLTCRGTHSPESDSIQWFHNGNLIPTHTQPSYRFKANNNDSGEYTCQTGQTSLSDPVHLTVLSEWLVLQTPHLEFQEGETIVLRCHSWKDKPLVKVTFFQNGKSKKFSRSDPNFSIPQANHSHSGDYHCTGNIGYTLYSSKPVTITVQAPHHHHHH
In the case of B1, the “binding as a percentage of the wild type” value is reported as 100 % of wild type. With B2 the “binding as a percentage of the wild type” value was 106 % of wild type. In the case of B3, the “binding as a percentage of the wild type” value is reported as 83 % of wild type. With B4 the “binding as a percentage of the wild type” value was 101 % of wild type. In the case of B5, the “binding as a percentage of the wild type” value is reported as 96 % of wild type. For B6, the “binding as a percentage of the wild type” value was 58 % of wild type.

The binders below were run against T3, FcγRIIa α subunit ECD-6His-GST fusion protein (UniProt P12318 34-217) in the same assay as above.
T3 construct: Expressed in 293 cells; not shown: glutathione S transferase (GST)
T3 sequence: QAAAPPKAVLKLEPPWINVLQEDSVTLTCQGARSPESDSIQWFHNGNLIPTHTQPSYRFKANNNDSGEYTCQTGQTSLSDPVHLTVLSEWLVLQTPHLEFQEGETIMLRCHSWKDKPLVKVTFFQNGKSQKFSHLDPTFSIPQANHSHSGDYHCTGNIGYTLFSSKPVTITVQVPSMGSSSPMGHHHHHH
In the case of B1, the “binding as a percentage of the wild type” value is reported as 100 % of wild type. In the case of B2, the “binding as a percentage of the wild type” value is reported as 113 % of wild type. With B3 the “binding as a percentage of the wild type” value was 94 % of wild type. In the case of B4, the “binding as a percentage of the wild type” value is reported as 109 % of wild type. For B5, the “binding as a percentage of the wild type” value was 111 % of wild type. For B6, the “binding as a percentage of the wild type” value was 86 % of wild type.

The binders below were run against T4, FcγRI α subunit-GST fusion (UniProt P12314 16-292) (assay: ELISA, monomeric IgG at 10 ug/ml on plate-coated FcγRI α subunit-GST fusion).
T4 construct: ECD-6His-GST fusion expressed in 293 cells; not shown: glutathione S transferase (GST)
T4 sequence (P12314 other isoform, or with tags, fused parts or gaps, form in doubt): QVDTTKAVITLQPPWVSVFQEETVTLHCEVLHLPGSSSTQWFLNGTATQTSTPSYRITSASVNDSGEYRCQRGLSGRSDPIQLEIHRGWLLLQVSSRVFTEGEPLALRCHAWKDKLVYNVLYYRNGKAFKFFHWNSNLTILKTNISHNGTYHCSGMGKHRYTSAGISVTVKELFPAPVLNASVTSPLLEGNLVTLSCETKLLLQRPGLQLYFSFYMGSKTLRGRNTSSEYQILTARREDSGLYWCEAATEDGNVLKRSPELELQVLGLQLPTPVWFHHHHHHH
With B1 the “binding as a percentage of the wild type” value was 100 % of wild type. B2 was tested, and the “binding as a percentage of the wild type” value was 93 % of wild type. With B3 the “binding as a percentage of the wild type” value was 102 % of wild type. With B4 the “binding as a percentage of the wild type” value was 90 % of wild type. B5 was tested, and the “binding as a percentage of the wild type” value was 104 % of wild type. In the case of B6, the “binding as a percentage of the wild type” value is reported as 74 % of wild type.
